Tests used:
[1] = molecular target: T1, recombinant mouse TNFR2-Fc protein (Sino Biological) (mouse, UniProt P25119 23-258, limits assumed); assay: ELISA, coated TNFR2-Fc
T1 construct: bought; also called mTNFR2 protein; mTNFR2; not shown: Fc part of the bought fusion protein; not described
T1 sequence (looked up): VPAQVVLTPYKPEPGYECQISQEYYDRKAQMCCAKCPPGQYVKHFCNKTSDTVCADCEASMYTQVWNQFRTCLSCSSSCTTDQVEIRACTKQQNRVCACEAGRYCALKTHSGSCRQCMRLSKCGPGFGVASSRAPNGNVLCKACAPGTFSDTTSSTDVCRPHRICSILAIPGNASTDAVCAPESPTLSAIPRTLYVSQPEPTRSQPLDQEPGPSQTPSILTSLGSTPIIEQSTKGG
Method: 96-well plates (Lumitrac 600 LIA plate, Greiner) were coated overnight at 4° C. with recombinant human or mouse TNFR2-Fc protein (Sino Biological) at 1 pmol/well. After washing, titrated doses of anti-TNFR2 mAbs from 20 μg/ml to 0.1 ng/ml (133 nM to 1 pM) were allowed to bind for 1 hour. Plates were then washed again, and bound antibodies were detected with an anti-human-F(ab)-HRP secondary antibody (Jackson ImmunoResearch) diluted in 50 ng/ml. Super Signal ELISA Pico (Thermo Scientific) was used as substrate and the plates were analyzed using Tecan Ultra Microplate reader.

[2] = molecular target: T2, wild type, full length murine TNFR2 (on cells) (mouse, UniProt P25119 23-474); assay: FACS, activated mouse CD4+ T cells
T2 construct: whole, on cells; also called mTNFR2; mouse TNFR2
T2 sequence (looked up): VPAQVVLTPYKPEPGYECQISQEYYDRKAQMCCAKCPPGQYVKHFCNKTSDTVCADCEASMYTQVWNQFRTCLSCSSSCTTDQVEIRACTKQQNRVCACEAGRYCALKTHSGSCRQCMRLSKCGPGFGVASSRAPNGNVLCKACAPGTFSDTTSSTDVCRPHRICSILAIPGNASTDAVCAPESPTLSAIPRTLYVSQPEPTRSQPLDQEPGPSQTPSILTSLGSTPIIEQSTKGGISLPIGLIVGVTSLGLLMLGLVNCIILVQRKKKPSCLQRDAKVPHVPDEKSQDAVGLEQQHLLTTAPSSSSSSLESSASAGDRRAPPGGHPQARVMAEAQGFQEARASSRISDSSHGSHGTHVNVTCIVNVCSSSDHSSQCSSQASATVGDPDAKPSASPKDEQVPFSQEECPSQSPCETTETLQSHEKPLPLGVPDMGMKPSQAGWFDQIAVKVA

[3] = molecular target: T3, mTNFRII (Sinobioologicals Cat No. 50128 M08H) (mouse, UniProt P25119 23-258, limits assumed); assay: blocking ELISA, coated mTNFRII, competitor mTNF-α 2 nM
T3 construct: bought
T3 sequence (looked up): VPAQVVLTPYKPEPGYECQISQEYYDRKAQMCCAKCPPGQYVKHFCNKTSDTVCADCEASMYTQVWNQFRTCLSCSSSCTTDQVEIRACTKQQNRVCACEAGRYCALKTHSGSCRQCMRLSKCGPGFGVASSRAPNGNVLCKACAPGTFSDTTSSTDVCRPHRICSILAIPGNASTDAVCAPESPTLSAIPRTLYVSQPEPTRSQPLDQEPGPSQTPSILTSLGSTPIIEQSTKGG
Method: 96-well plates were coated with hTNFRII (Sinobioologicals Cat nr10414-H08H) or mTNFRII (Sinobioologicals Cat No. 50128 M08H) at 2.5 pmol/well in ELISA coating buffer (0.1 M sodium carbonate pH 9.5) and incubated overnight at 4° C. After washing in ELISA wash buffer (PBS with 0.05% Tween20), the plates were incubated under slow agitation for 1 h in room temperature with n-CoDeR® mAbs at 10 μg/ml (one-dose ELISA) or 33 nM and subsequent 1:2 dilutions (titration ELISA) in block buffer containing 0.45% fish gelatin. […] Thereafter, plates were washed. For the human ELISAs, Streptavidin-HRP (Jackson Cat No. 016-030-084) diluted 1:2000 in block buffer were added and again incubated for 1 h at room temperature followed by washes first in ELISA buffer and then in Tris buffer (pH 9.8). The substrate (Super Signal ELISA Pico from Thermo Scientific Cat. No. 37069) were thereafter diluted according to the manufacturers instruction, added to the wells and incubated in darkness for 10 min before reading in a Tecan Ultra. […] After washing, anti-Rabbit-HRP diluted 1:10 000 in block buffer was added and again incubated for 1 h at room temperature. Substrate adding and reading were performed as above.

EC50 [1]: 970 pM
EC50 [2]: 72 pM
EC50 [3]: 1900 pM
B1: 003-F10 (antibody, V domains shown)
VH: EVQLLESGGGLVQPGGSLRLSCAASGFTFSDAWMTWVRQAPGKGLEWVSDLSDSGGSTYYADSVKGRFTISRDNSKNTLYLQMNSLRAEDTAVYYCGRLAAGGPVDYWGQGTLVTVSS
VL: QSVLTQPPSASGTPGQRVTISCTGSSSNIGAGYDVHWYQQLPGTAPKLLIYSNNQRPSGVPDRFSGSKSGTSASLAISGLRSEDEADYYCSVWDDSLNSWVFGGGTKLTVLG
notes: also called 3-F10 (mouse)

Reference: patent US20220002426A1 (BIOINVENT INTERNATIONAL, published 2022)
